Laboratory results from patent US20160108117A1 (UNIVERSITE DE NICE SOPHIA ANTIPOLIS, published 2016).

Experiments:
[1] = biological target: T1, peptide specific for human CXCL7 of sequence SDLYAELRCMCIKTTSGIHPKNIQS (SEQ ID NO: 20) coupled to keyhole … (human, coupled to keyhole limpet hemocyanine); experiment: ELISA screen on KLH-coupled peptide
T1 construct: Immunisation peptide, used in the ELISA screen as a KLH conjugate; also called pCXCL7
T1 peptide: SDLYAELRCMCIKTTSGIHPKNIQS

[2] = biological target: T2, human chemokine CXCL1 (human, UniProt P09341 35-107); experiment: SPR (Biacore 3000), antibody captured on a CM5 chip, cytokine as analyte, 25 C; head 'x M10Exp8' applied as printed, but this does not agree with 1/Kd of the same pair (about 6.4e7)
T2 construct: also called growth-regulated oncogene alpha; GRO-alpha
T2 sequence (looked up): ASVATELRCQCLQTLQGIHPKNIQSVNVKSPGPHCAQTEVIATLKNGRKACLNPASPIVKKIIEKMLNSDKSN
Description: (§1) With the BIAcore® 3000, 4 canals (Flow cell) are designed on the CM5 sensor surface. The polyclonal rabbit anti mouse IgG antibodies are covalently coupled on the 2nd, 3rd and 4th flow cells (FC), leaving the first FC (FC1) blank for reference subtraction. The first FC (FC1) is only activated (EDC/NHS) and deactivated (ethanolamine hydrochloride NaOH), without injection of capture antibody.
(§2) First the ligand (interest antibody) is captured by the immobilised antibodies. Diluted antibodies Mc12A10-13 (5 μg/mL), Mc35B11-8 (8 μg/mL), McCXCL1 (2 μg/mL), McCXCL7 (1 μg/mL), McCXCL8 (3 μg/mL), McPan CXCL1-2-3 (5 μg/mL) are captured by the polyclonal rabbit anti mouse IgG antibodies immobilized on the CM5 sensor chip with a 3 minutes injection at a flow rate of 5 μL/min. The complex “capture antibody—ligand” is stabilized during 10 minutes before the injection of the analyte (cytokines). This capture is a non-covalent interaction.
(§3) Then a range of cytokine concentration is injected (analyte) over the captured antibody (ligand). Cytokines CXCL1, CXCL3, NAP2, IL8 are injected over the captured ligand for a range of concentration from 0 to 10 μg/mL, at a flow rate of […]. The complex “ligand/analyte” is formed. The association and the dissociation phases are monitored over about 3 minutes and 2.5 minutes respectively. The signal induced is measured in RU (Resonance Unit).

[3] = biological target: T3, human chemokine CXCL8 (human, UniProt P10145 28-99, limits assumed); experiment: SPR (Biacore 3000), antibody captured on a CM5 chip, cytokine as analyte, 25 C; head 'x M10Exp8' applied as printed, but this does not agree with 1/Kd of the same pair (about 2.26e7)
T3 construct: also called IL8; IL-8
T3 sequence (looked up): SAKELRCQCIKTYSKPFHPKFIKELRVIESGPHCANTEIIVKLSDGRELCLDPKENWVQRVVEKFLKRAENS
Description: as §1, §2, §3

[4] = biological target: T3, human chemokine CXCL8; experiment: SPR (Biacore 3000), antibody captured on a CM5 chip, cytokine injected as analyte, 25 C
Description: as §1, §2, §3

[5] = biological target: T2, human chemokine CXCL1; experiment: as above
Description: as §1, §2, §3

[6] = biological target: T4, human chemokine CXCL7 (human, UniProt P02775 59-128); experiment: as above
T4 construct: also called NAP2; NAP-2
T4 sequence (looked up): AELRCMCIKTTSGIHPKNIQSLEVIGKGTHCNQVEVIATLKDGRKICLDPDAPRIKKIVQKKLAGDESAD
Description: as §1, §2, §3

[7] = biological target: T5, CXCL3 (human (presumed; the text does not …, UniProt P19876); experiment: as above
T5 construct: also called cytokine CXCL3; Gro-gamma
T5 sequence (chemokine, looked up): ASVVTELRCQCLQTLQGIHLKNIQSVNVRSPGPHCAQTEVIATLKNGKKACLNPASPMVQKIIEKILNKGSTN
Description: as §1, §2, §3

[8] = biological target: T5, CXCL3; experiment: SPR (Biacore 3000), antibody captured on a CM5 chip, cytokine as analyte, 25 C; head 'x M10Exp8' applied as printed, but this does not agree with 1/Kd of the same pair (about 1.55e7)
Description: as §1, §2, §3

[9] = biological target: T4, human chemokine CXCL7; experiment: SPR (Biacore 3000), antibody captured on a CM5 chip, cytokine as analyte, 25 C; head 'x M10Exp8' applied, agrees with 1/Kd
Description: as §1, §2, §3

[10] = biological target: T3, human chemokine CXCL8; experiment: SPR (Biacore 3000), antibody captured on a CM5 chip, cytokine as analyte, 25 C; head 'x M10Exp8' applied as printed, but this does not agree with 1/Kd of the same pair (about 5.03e7)
Description: as §1, §2, §3

[11] = biological target: T2, human chemokine CXCL1; experiment: SPR (Biacore 3000), antibody captured on a CM5 chip, cytokine as analyte, 25 C; head 'x M10Exp8' applied as printed, but this does not agree with 1/Kd of the same pair (about 8.47e7)
Description: as §1, §2, §3

B1: monoclonal rat IgG antibody produced by the hybridoma 12A10-13 (CNCM I-4617) (antibody, V domains shown)
VH: QVQLQQSGAELAKPGSSVKISCKASGYTFTSYYISWIKQTTGQGLEYIGYINTGSGGTNYNEKFKGKATLTVDKSSSTAFMQLSSLTPDDSAVYYCASPSGGFDYWGQGVMVTVSS
VL: EIVLTQSPTTMAASPGEKVTITCRASSSVSYMHWYQQKPGASPKPWIYDTSKLASGVPNRFSGSGSGTSYSLTISSMETEDTATYYCQQWSSNSLTFGSGTKLEIK
notes: also called Mc12A10-13
binding result [1]: binds
Ka [2]: 6.4e+07 M⁻¹
Ka [3]: 2.26e+07 M⁻¹
Kd [4]: 44.3 nM
Kd [5]: 15.6 nM
Kd [6]: 3.3 nM
Kd [7]: 64.5 nM
Ka [8]: 1.55e+07 M⁻¹
Ka [9]: 3.03e+08 M⁻¹

B2: monoclonal rat IgG antibody produced by the hybridoma 35B11-8 (CNCM I-4618) (antibody, V domains shown)
VH: EVQLVESGGGLVQPGRSLKLSCVASGFTFNNYWMTWIRQAPGKGLEWVASISKTGSNPYYPDSVKGRFTISRDNAKNTLYLQMNSLRSEDTATYYCARDGTTPLDYWGQGVMVTVSS
VL: DIQMTQSPPSLSASLGDKVTITCQASQNINKYIAWYQQKPGKAPGLLIHYTSTLVSGIPSRFSGSGSGRVYSFSISNVESEDIASYYCLQYDNSPFPFGAGTKLELK
notes: also called Mc35B11-8
Ka [10]: 5.03e+07 M⁻¹
binding result [1]: binds
Ka [11]: 8.5e+07 M⁻¹
Kd [4]: 19.9 nM
Kd [5]: 11.8 nM
Kd [6]: 4.99 nM
Kd [7]: 247 nM
Ka [9]: 2.01e+08 M⁻¹
